The source of these data is patent publication US20150329595A1 (NORTH CAROLINA STATE UNIVERSITY, published 2015).

The labels stand for the following.
B1: AD:TAL11-352 prey (activation domain fused to full-length TGMV AL1) (other, Tomato golden mosaic virus, UniProt P03567 1-352, looked up, not shown: large carriers)
chain: MPSHPKRFQINAKNYFLTYPQCSLSKEESLSQLQALNTPINKKFIKICRELHEDGQPHLHVLIQFEGKYCCQNQRFFDLVSPTRSAHFHPNIQRAKSSSDVKTYIDKDGDTLVWGEFQVDGRSARGGCQTSNDAAAEALNASSKEEALQIIREKIPEKYLFQFHNLNSNLDRIFDKTPEPWLPPFHVSSFTNVPDEMRQWAENYFGKSSAARPERPISIIIEGDSRTGKTMWARSLGPHNYLSGHLDLNSRVYSNKVEYNVIDDVTPQYLKLKHWKELIGAQRDWQTNCKYGKPVQIKGGIPSIVLCNPGEGASYKVFLDKEENTPLKNWTFHNAKFVFLNSPLYQSSTQSS
notes: positive prey control; also called pNSB970

Experiment [1] deals with T1, GUS bait (LexA DBD:beta-glucuronidase fusion) (E. coli, UniProt P0A7C2 1-202; P05804 1-603).
T1 construct: negative control bait; also called pNSB1120
The experiment is described as follows: yeast two-hybrid growth.

In experiment [2] the target is B1. Put plainly: yeast two-hybrid growth.

In the case of B1, the binding result in experiment [1] is listed as “no binding”.

B2: TAL11-130 bait (LexA DBD fused to the first 130 amino acids of TGMV AL1) (other, E. coli;Tomato golden mosaic virus, UniProt P0A7C2 1-202, looked up)
chain: MKALTARQQEVFDLIRDHISQTGMPPTRAEIAQRLGFRSPNAAEEHLKALARKGVIEIVSGASRGIRLLQEEEEGLPLVGRVAAGEPLLAQQHIEGHYQVDPSLFKPNADFLLRVSGMSMKDIGIMDGDLLAVHKTQDVRNGQVVVARIDDEVTVKRLKKQGNKVELLPENSEFKPIVVDLRQQSFTIEGLAVGVIRNGDWLMPSHPKRFQINAKNYFLTYPQCSLSKEESLSQLQALNTPINKKFIKICRELHEDGQPHLHVLIQFEGKYCCQNQRFFDLVSPTRSAHFHPNIQRAKSSSDVKTYIDKDGDTLVWGEFQVDGRSARGGCQT
notes: yeast two-hybrid bait; also called NT; Rep1-130
B2: the binding result in experiment [2] is “no binding”.
